{"source": "paper PMC12478167", "key": {"[1]": {"molecular_target": "sLilrB2, a soluble Fc-tagged form of LilrB2 containing the entire extracellular domain (human) (UniProt Q8N423)", "test": "SPR"}, "[2]": {"molecular_target": "endogenous PirB in mouse cortical neurons (mouse (endogenous in cortical neurons)) (UniProt P97484)", "test": "immunostaining of cells or tissue"}, "[3]": {"molecular_target": "Myc-tagged LilrB2 expressed in HEK293 cells (human) (UniProt Q8N423)", "test": "immunostaining of cells or tissue"}, "[4]": {"molecular_target": "HA-PirB expressed in HEK293 cells (mouse) (UniProt P97484)", "test": "immunostaining of cells or tissue"}}}
{"substance": "C4d, terminal split product of complement component C4 (from UniProt P0C0L4 957-1336) (domain or fragment)", "values": [{"measurement": "Kd", "setting": "[1]", "result": 3, "unit": "nM"}, {"measurement": "Kd", "setting": "[2]", "result": 380, "unit": "nM"}, {"measurement": "Kd", "setting": "[3]", "result": 37, "unit": "nM"}, {"measurement": "Kd", "setting": "[4]", "result": 56, "unit": "nM"}]}
